The experiment has as its target HLA-A*02:01 (Homo sapiens, UniProt P04439, D140Y/D185E/D98H/E176V/E277Q/G131W/G231S/I119V/I121R/I166T/I218V/L300P/L318F/N151K/N90K/P208A/P217A/Q86G/Q94H/R138H/R169H/T345S). Description: MHC binding assay (UV-ligand exchange, β2m ELISA, peptide exchange yield). The following applies: MHC class I binding score; binding to HLA-A*02:01 ranged by peptide exchange yield (UV-ligand exchange, β2m ELISA). Summed up: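 Peptide–HLA-A*02:01 complexes were formed by UV-mediated exchange of a UV-cleavable ligand for the test peptide. Exchange yield was measured by capturing complexes on streptavidin, detecting with HRP anti-β2m antibody (1 h, 37°C) and reading TMB absorbance at 450 nm.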
(In general: ELISA stands for enzyme-linked immunosorbent assay.)
“456 (LLIGHLERV; listed as Homo sapiens) [compound 456]”: the Peptide exchange entry is ““+++” (≧50 = +++)”. The result for “457 (SLLPGNLVEKV; listed as Homo sapiens) [compound 457]” reads ““+++” (≧50 = +++)”; that for “458 (SLIDKLYNI; listed as Homo sapiens) [compound 458]”, ““++” (≧20% = ++)”. The result for “459 (ALITEVVRL; listed as Homo sapiens) [compound 459]” reads ““++” (≧20% = ++)”; that for “461 (VMFRTPLASV; listed as Homo sapiens) [compound 461]”, ““++” (≧20% = ++)”.

On to “462 (KLAKQPETV; listed as Homo sapiens) [compound 462]”, for which the Peptide exchange result was ““+++” (≧50 = +++)”.

For the substance “464 (ALNDCIYSV; listed as Homo sapiens) [compound 464]”, the Peptide exchange result is reported as ““+++” (≧50 = +++)”. Consider “465 (QLCDLNAEL; listed as Homo sapiens) [compound 465]”, for which the Peptide exchange entry was ““+++” (≧50 = +++)”. The result for “466 (VLIANLEKL; listed as Homo sapiens) [compound 466]” reads ““++++” (≧75% = ++++)”. Turning to “467 (FLAKDFNFL; listed as Homo sapiens) [compound 467]”, the Peptide exchange entry is listed as ““+++” (≧50 = +++)”. For “468 (YLRSVGDGETV; listed as Homo sapiens) [compound 468]”, the Peptide exchange entry was ““+++” (≧50 = +++)”. The result for “469 (YLASDEITTV; listed as Homo sapiens) [compound 469]” reads ““+++” (≧50 = +++)”; that for “471 (YLYNNMIAKI; listed as Homo sapiens) [compound 471]”, ““+++” (≧50 = +++)”; that for “472 (KLLEVSDDPQV; listed as Homo sapiens) [compound 472]”, ““+++” (≧50 = +++)”. The result for “473 (AMATESILHFA; listed as Homo sapiens) [compound 473]” reads ““+++” (≧50 = +++)”; that for “474 (YLDPALELGPRNV; listed as Homo sapiens) [compound 474]”, ““+++” (≧50 = +++)”. “475 (LLLNEEALAQI; listed as Homo sapiens) [compound 475]”: the Peptide exchange entry is on record as ““+++” (≧50 = +++)”. The entry for “476 (ALMERTGYSMV; listed as Homo sapiens) [compound 476]” is ““+++” (≧50 = +++)”; for “477 (ALLPASGQIAL; listed as Homo sapiens) [compound 477]” it is ““+++” (≧50 = +++)”; for “478 (YLLHEKLNL; listed as Homo sapiens) [compound 478]” it is ““+++” (≧50 = +++)”.

With “479 (SLFGNSGILENV; listed as Homo sapiens) [compound 479]”, the Peptide exchange result is ““+++” (≧50 = +++)”. The result for “480 (ALLEDSCHYL; listed as Homo sapiens) [compound 480]” reads ““+++” (≧50 = +++)”; that for “481 (GLIEDYEALL; listed as Homo sapiens) [compound 481]”, ““+++” (≧50 = +++)”; that for “484 (SLIEKVTQL; listed as Homo sapiens) [compound 484]”, ““+++” (≧50 = +++)”. The entry for “485 (NVPDSFNEV; listed as Homo sapiens) [compound 485]” is ““+++” (≧50 = +++)”; for “486 (AVMESIQGV; listed as Homo sapiens) [compound 486]” it is ““+++” (≧50 = +++)”; for “487 (LLINSVFHV; listed as Homo sapiens) [compound 487]” it is ““+++” (≧50 = +++)”. The entry for “488 (FLAEDPKVTL; listed as Homo sapiens) [compound 488]” is ““+++” (≧50 = +++)”; for “490 (FLLQHVQEL; listed as Homo sapiens) [compound 490]” it is ““+++” (≧50 = +++)”.

The record behind these values is US20170002055A1, “Novel peptides and combination of peptides for use in immunotherapy against ovarian cancer and other cancers” (immatics biotechnologies GmbH, priority 2015, published 2017).
